Measured values reported in patent US20190367620A1.

What was measured:
Human FGF1 (human) = Human FGF1 (human) (UniProt P05230); assay: cell-based or functional assay
Human FGF2 (human) = Human FGF2 (human) (UniProt P09038); assay: cell-based or functional assay
Chain of Human FGF2 (human) (P09038 135-288 limits assumed): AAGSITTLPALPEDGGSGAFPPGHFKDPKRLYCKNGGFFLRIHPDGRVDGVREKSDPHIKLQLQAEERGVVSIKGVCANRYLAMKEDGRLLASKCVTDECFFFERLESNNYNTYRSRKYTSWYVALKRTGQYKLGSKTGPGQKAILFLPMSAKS

Chain of Human FGF1 (human) (P05230 16-155 limits assumed): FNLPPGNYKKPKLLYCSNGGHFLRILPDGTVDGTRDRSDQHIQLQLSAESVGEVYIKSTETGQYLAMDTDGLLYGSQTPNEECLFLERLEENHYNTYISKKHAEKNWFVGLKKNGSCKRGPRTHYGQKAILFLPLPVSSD

FP-1039 (Fc fusion) gave an IC50, inhibition of P-FGFR1 in NCI-H520 cells, FGF1 stimulated (Human FGF1 (human)) of 50 nM and an IC50, inhibition of P-FGFR1 in NCI-H520 cells, FGF2 stimulated (Human FGF2 (human)) of 30 nM.
